This note sets out measurements from the DeepSol protein solubility set.

The nature of the series: soluble on expression in E. coli; label from the status in PepcDB or PDB records.
Regarding “MISEKPAAKRIQSGGCAIHCQDCSISQLCIPFTLNESELDQLDQIIERKKPIQKGQELFKAGDELRSLYAIRSGTIKSYTITEQGDEQITAFHLAGDLVGFDAITGDQHPSFAQALETSMVCEIPYEILDDLSGKMPKLRQQIMRLMSNEIKGDQEMILLLSKKNAEERLAAFLYNLSTRFSQRGFSPREFRLTMTRGDIGNYLGLTVETISRLLGRFQKSEILSVKGKYITILNHAELMELAGVSKESK”, the “soluble on expression in E. coli” value is on record as “soluble”.

On to “PSSSQSEEKAPELPKPKKNRCFMCRKKVGLTGFDCRCGNLFCGLHRYSDKHNCPYDYKAEA”, for which the “soluble on expression in E. coli” value was “soluble”.

On to “GMVYVDPDRFDELVAEALDGIPEEFARAMRNVAVFVEDEPDDPELLGLYVGIPLTERTTAYGGVLPDRIIIYRNTICALCETESEVIDEVRKTVVHEIAHHFGIDDERLHELGY”, for which the “soluble on expression in E. coli” value is reported as “soluble”.

As to “MVQDQIRYDILVQDALRGVIRKVLSEVAKAGLPGSHHFFITFLTNAPGVKISTRLKSRYPEQMTIVLQHQFRDLNVSETAFEVTLSFREVSEKLVIPFHSIQVFYDPVAAFEAAFDLPSNLNSKEGENLENIASTPVILSDTQKKEKKFPKEQISKTNKDSSNNDTKQSADVVSLDSFRKK”, the “soluble on expression in E. coli” value is “not soluble”.

Regarding “MGESHAPSKPKLDGELCLRPSSSVFLGDQQLYFTQEYLRTNSLNLKYVVYFTACQFSGPIAVAYSPRPASWYIWIRTISGRILKRDMAFNEPVFMEWTRAHCLLVLNKAGRAHIFSSLGEKISEVIFDSQMSDVHECRTFATSRGDSGIAVMDVDGQVSVVNSVSEPVIWSMKPPYSEMPTAWTAFQPHSQLTHILLIFEAVFLMGCQGESLREQSHAASWVDSNTKYVKCVVDDARSRIAMMTESGKIQIVSIDLSTCFCTVEITDHDIAKCINFGWVGNSAVFVQMSPSLIVFVNVSARRKPGDEVQIYEKMTANAKISIEPDGIRLFESTQVEFVEAASREKIAVLNRNPNEDGAHLYKAAQEMSQGTGHNSFAASTVIQDLYKAIDDCISTACDTWQPEEQKLLLKAARFGMAYTNTTPDTTKLMRAIKEIRVLNELRMVRTGIPLTHRQFRAIGETCVINRLIDMGSYSVAIKVAQWLGGETSENVDRVLLEWVRRSISKVSKSNMKMDQPALEALDEKISAKLLQFPHVSIADAARRAIEAKLPELARLFIRRETDDANHVAVLLQLNDVSAALQKASASQRPQLIHQVVRHLMNSESRSSYELAISRIPLAQCLYQDLVRQEGETRGASSRQMLALLEQASDFERQTLFHFDVAETERNPDERLNALRRAKDAAKSMGDKAIEEILNDVSAFAPLQIQRGQADMSVRDTVIEMAHDTAKVAQLKQQARLTDKQVLLWTIEGLAKKGKMEQLFDLAQKRSPIGYAPFVKACVRYKRLDEIKKYFAKVNGYPDLVAAHLAMKNYVEAAKLAYDRRDRDVLHAVHMKSHEDPTQCPRVGQFLRSLDQN”, the “soluble on expression in E. coli” value is “not soluble”.

As for “MAHVAEWKKKEVEELAKLIKSYPVIALVDVSSMPAYPLSQMRRLIRENGGLLRVSRNTLIELAIKKAAKELGKPELEKLVEYIDRGAGILVTNMNPFKLYKFLQQNRQPAPAKPGAVVPKDVVVPAGPTPLAPGPIVGQMQALGIPARIEKGKVTIQKDTTVLKAGEVITPELANILNALGIQPLEVGLDVLAVYEDGIVYTPDVLAIDEQEYIDMLQKAYMHAFNLAVNIAYPTPETIEAIIQKAFLNAKTVAIEAGYITKETIQDIIGRAFRAMLLLAQQLP”, the “soluble on expression in E. coli” value is listed as “soluble”.

As for “MYDWFKQMRKESPVYYDGKVWNLFKYEDCKMVLNDHKRFSSNLTGYNDKLEMLRSGKVFFDIPTRYTMLTSDPPLHDELRNLTADAFNPSNLPVDFVREVTVKLLSELDEEFDVIESFAIPLPILVISKMLGINPDVKKVKDWSDLVALRLGRADEIFSIGRKYLELISFSKKELDSRKGKEIVDLTGKIANSNLSELEKEGYFILLMIAGNETTTNLIGNAIEDFTLYNSWDYVREKGALKAVEEALRFSPPVMRTIRVTKEKVKIRDQVIDEGELVRVWIASANRDEEVFKDPDSFIPDRTPNPHLSFGSGIHLCLGAPLARLEARIALEEFAKKFRVKEIVKKEKIDNEVLNGYRKLVVRVERT”, the “soluble on expression in E. coli” value is “soluble”.

For “SMEEKLKKTNIIFVVGGPGSGKGTQCEKIVQKYGYTHLSTGDLLRSEVSSGSARGKKLSEIMEKGQLVPLETVLDMLRDAMVAKVNTSKGFLIDGYPREVQQGEEFERRIGQPTLLLYVDAGPETMTQRLLKRGETSGRVDDNEETIKKRLETYYKATEPVIAFYEKRGIVRKVNAEGSVDSVFSQVCTHLDALLN”, the “soluble on expression in E. coli” value was “soluble”.

For “ISRLLAGQLDFRSAIRSVAAEVAHIIPHDHLDVCVLLEDGNYHTAYETGIETAWGDLAGAPVVNSPIRSLLWGEVDFLLADDAMTDPRFHFDGAFKRPIVEQSLRSRLHVPMKVQGAIIAALSCSSQEAGAYTMEDVERARIIADLLTPYFFALRAAEQAQR”, the “soluble on expression in E. coli” value is reported as “not soluble”.

Take “MNELFLSELKSADKDLLQKLVLIEEHVFADSAQEPVQTEASLDSLELIISQCIAIISEIESPLEKAEALLNELYFQHLFIDRYQTRWPISAYSVAKGLNQRAMSPVVKAALVKEIITACGFETDLVFIPNKIMVRLCCDEQYAIIFDAITGESLDWTELDVRLDELDGDPGEQELKAIDDSVALVEHLSALKNVLIHEQAFDKALTCVDVILSLNPDDPLQRRDRGFLLHQLDCFKVAVDDYRYFVEQCPKDPAAKILKIQLEKIDVGNNVLHLEHHHHHH”: the “soluble on expression in E. coli” value is on record as “soluble”.

As to “MGSDKIHHHHHHMQLKLSSVSKKFDHKIILEDTSFTFEQGKIYGLLGRNGAGKTTLFNCIARNLTLDGGSIQFVKDEIAFDYDNTDIGFTQTYPQLPAFMTAYEFVRFYMDIHKDKLKSPRSPEEWLNLVGIGEEDRHRLLKDFSHGMQNKVQLLLSLIVQPPVLLLDEPLTSFDPVAAHEFKQLIREAKKDSVIIFSTHILQLAQDLCDEIVLLHHQELQAVPSDKLHDPDFEQEVVTLLTAD”, the “soluble on expression in E. coli” value is recorded as “not soluble”.

For the sequence “MVLYPLEAEVTMVTSFQDADPMGVIYHGNFFRYFEEARRVLMEKIQYGYRDMQDSGYMWPIIDTRVKYVKAIPFNHTIRITAQLTEWENRLRVDYVIYDAETNQRMCKAHTTQVAVSIEKQEMCFVSPAVFLDKVEQWHNHGLEHHHHHH”, the “soluble on expression in E. coli” value is “not soluble”.

With “MSYSPSLKEIIAILQKYTSKNYQSNCKTRPDGKLELSLNGVFEEIVKTPGKTRYVTHKQLDQKLKDFKQDLMVELHDTFATKTDLKESEARINQKLEALIQIVMVQGEQIKVHGEQINKLTQAVEKQGEKIEAQGQQIQKVNETLNFVVESLGSIHKRLDSMEGRLDSMENRLDKLESKLEHHHHHH”, the “soluble on expression in E. coli” value is “not soluble”.

Consider “LAMVDNLQGDSGRGYYLEMLIGTPPQKLQILVDTGSSNFAVAGTPHSYIDTYFDTERSSTYRSKGFDVTVKYTQGSWTGFVGEDLVTIPKGFNTSFLVNIATIFESENFFLPGIKWNGILGLAYATLAKPSSSLETFFDSLVTQANIPNVFSMQMCGAGLPVAGSGTNGGSLVLGGIEPSLYKGDIWYTPIKEEWYYQIEILKLEIGGQSLNLDCREYNADKAIVDSGTTLLRLPQKVFDAVVEAVARASLIPEFSDGFWTGSQLACWTNSETPWSYFPKISIYLRDENSSRSFRITILPQLYIQPMMGAGLNYECYRFGISPSTNALVIGATVMEGFYVIFDRAQKRVGFAASPCAEIAGAAVSEISGPFSTEDVASNCVPA”, for which the “soluble on expression in E. coli” value is recorded as “soluble”.

As to “MGHHHHHHSHMCPRCGKQFNHSSNLNRHMNVHRGVKSHSCGICGKCFTQKSTLHDHLNLHSGARPYRCSYCD”, the “soluble on expression in E. coli” value is “soluble”.

Turning to “MGSDKIHHHHHHMTQSSLDPATVELTADQQQAAEAFSSWLDDANHGNPFVLSGFAGSGKTFLSMRLLRQVEDAGLCWTVVAPTHKAVGVLRQALDLEGLRPTWYPSTIHRLLRLKLKRQGDLELCESTEQTAQSLEQLGLVLIDESSMIDSTLLGLALQCAHPFRTRLVFVGDPAQLPPIGEAQSPVFSMHRACTATLQQVVRHQGPVLRLASRLRDGSLPCQSPPCFPLIEDELGRVGCMDQNNWLKRAQAALQSAAIQDNPDAARILCYTNRSLEQLVPHARRAIHGDMADQLPVLPGEVLIARKAVMAPASRSGAETGEEPDMVLGSNREVVVRDVTPERCDLAEFGLEGQSDWSVPVVDTLTAKVRAGELDLELRLQPPVGSEGRRLLDTTLQRLRVEAKAAGKSDGRSLWRRFFLLRDAFASLGPAAVLTVHRSQGSSFGEVFVAGDVFWPQDLSLRRQLVYVAVSRARTGVWLVGKTGAAAQSRWLDQLRSQSSDR”, the “soluble on expression in E. coli” value is on record as “not soluble”.

With “MSLKIAVTGGTGFLGQYVVESIKNDGNTPIILTRSIGNKAINDYEYRVSDYTLEDLINQLNDVDAVVHLAATRGSQGKISEFHDNEILTQNLYDACYENNISNIVYASTISAYSDETSLPWNEKELPLPDLMYGVSKLACEHIGNIYSRKKGLCIKNLRFAHLYGFNEKNNYMINRFFRQAFHGEQLTLHANSVAKREFLYAKDAAKSVIYALKQEKVSGTFNIGSGDALTNYEVANTINNAFGNKDNLLVKNPNANEGIHSSYMDSSKAKELLDFSTDYNFATAVEEIHLLMRGLDDVPLWYEGHHHHHH”, the “soluble on expression in E. coli” value was “soluble”.

For “MQFSLVIPVYNAGMMWPEVIRSIKSQTIQPECVIIIDSSSTDNTVAYATEAGFEVYHIDKSTFDHGGTRSMALERVNTEFVIYMTQDAILQNDEAFFYLLSAFNNEEVGAVYGRQLPHHDANPLATHARLHSYGEVGYVTSMKDDFPQGFRKAFMSNSFSGYRVSTLRQIGGFPAKLILGEDSYVAARMLSTGVSVGYIPQALARHSHNYSVGEEFKRYFDIGVFHKTQEWMLASLGKVEGEGVKFALGQICYLLKSNYYHYIPFSIASSGAKYLGYKLGKNYHRLNRTLCKKLSMYKSYWNSSVLEHHHHHH”, the “soluble on expression in E. coli” value is “soluble”.

On to “MSLAIKLIAIDMDGTLLLPDHTISPAVKNAIAAARARGVNVVLTTGRPYAGVHNYLKELHMEQPGDYCITYNGALVQKAADGSTVAQTALSYDDYRFLEKLSREVGSHFHALDRTTLYTANRDISYYTVHESFVATIPLVFCEAEKMDPNTQFLKVMMIDEPAILDQAIARIPQEVKEKYTVLKSAPYFLEILDKRVNKGTGVKSLADVLGIKPEEIMAIGDQENDIAMIEYAGVGVAVDNAIPSVKEVANFVTKSNLEDGVAFAIEKYVLNEGGSHHHHHH”, for which the “soluble on expression in E. coli” value is listed as “soluble”.

For the sequence “MGSDKIHHHHHHMDISIARTFLEVVKTGSFVNAAANLNISQTAVSARIRVLEEQLDRPMFVRNKAGARLTPAGEQFFRFATSLVQVWEAARTTVALPPGREAMVTIGAELSLWNPLLKHWLLWMRRECASVAIRTTIDRSERLMELVQDGSLDAAVLYGAPNRPGTLTELLFEEKLVLVRTTALSQPPGPEDLVGIDWGEDFAGSYRAAFPGGRNPVVAISYGPLALDYILEVGGSGYFRQGFVRPYLVDGRLELVPNSPEFAYPAYLVSSAKADRSMLDRIRAGLRAAASSAGV”, the “soluble on expression in E. coli” value is on record as “not soluble”.

“MSSMSESDSYQSSQLTSEPDLVALDAKIMAVMDGTEELEREIGKMMALQQAISDYKKSHQHRTQRTKEKLTDMSKDLTITGKNIVKSCEERLKQISDVTEPYINSGISSVEDHTSSVVERCIQMLGAISGLGGAMKKTEGLSSKVLEHHRKLAIMEHKQADAISRYEKAVGVQKLVREHPAGDPLHELANLLGIFLALQQSPNTSEYYKKVFDGFGGRVTALFAEIDRPKTAKSLATRSGMSTLSSMSNGEINLESIKDNTEIPVDTCQ”: the “soluble on expression in E. coli” value is “not soluble”.

With “GSHSMKYFYTSMSRPGRGQPRFIAVGYVDDTQFVRFDSDAASQRMEPRAPWVEQEGPEYWDRETRNMKTETQNAPVNLRTLLRYYNQSEAGSHTLQRMVGCDLGPDGRLLRGYEQYAYDGKDYIALNEDLRSWTAADVAAQNTQRKWEAADVAESMRAYLEGQCVEWLPRYLEKGKETLQRTDPPKTHVTHHPVSDHEATLRCWALGFYPAEITLTWQRDGEDQTQDTELVETRPAGDGTFQKWAAVVVPSGEEQRYTCHVQHEGLPKPHTLKWEPHH”, the “soluble on expression in E. coli” value was “soluble”.
